Patent US20210095032A1 (SALUBRIS CHENGDU BIOTECH, published 2021)
Where two headings read alike, the source gives them in different places.

Key:
[1] = biological target: T1, human PD-1 on PD-1 Effector Cell Line (Genscript, GS-J2/PD-1) (human, UniProt Q15116 25-288); experiment: cell-based or functional assay
[2] = biological target: T1, human PD-1 on PD-1 Effector Cell Line …; experiment: cell-based or functional assay; remark: listed apart in the source
[3] = biological target: T1, human PD-1 on PD-1 Effector Cell Line …; experiment: cell-based or functional assay; remark: listed apart in the source
[4] = biological target: T2, recombinant human PD-1-his (Sino biological, #10377-H08H) (human, UniProt Q15116 25-167); experiment: SPR (Biacore), antibody captured, human PD-1-his flowed
T2 construct: Bought protein; also called Human PD-1-his protein; not shown: his tag
Source text: (§1) Briefly, goat anti-mouse IgG (GE healthcare, Cat #BR100839, Human Antibody Capture Kit) was covalently linked to a CMS chip (carboxy methyl dextran coated chip) via primary amines, using a standard amine coupling kit (GE healthcare, Pittsburgh, Pa., USA) provided by Biacore. Un-reacted moieties on the biosensor surface were blocked with ethanolamine. […] Then, recombinant human PD-1-his (Sino biological, #10377-H08H) or cynomolgus monkey PD-1-his protein (Acro biosystems, #PD-1-05223) in HBS EP buffer (provided by Biacore) was flowed onto the chip at a flow rate of 30 μL/min. The antigen-antibody association kinetics was followed for 2 minutes and the dissociation kinetics was followed for 10 minutes. The association and dissociation curves were fit to a 1:1 Langmuir binding model using BIA evaluation software.

[5] = biological target: T3, cynomolgus monkey PD-1-his protein (Acro biosystems, #PD-1-05223) (cynomolgus monkey, UniProt B0LAJ3 25-170); experiment: SPR (Biacore), antibody captured, cynomolgus PD-1-his flowed
T3 construct: Bought protein; also called Cynomolgus PD-1; Cynomolgus PD1
Source text: as §1

[6] = biological target: T2, recombinant human PD-1-his (Sino …); experiment: SPR (Biacore T200), antibody captured, PD-1-his flowed, 1:1 Langmuir fit
Source text: as §1

[7] = biological target: T3, cynomolgus monkey PD-1-his protein …; experiment: as above
Source text: as §1

[8] = biological target: T4, biotin-labeled human PD-1 Fc protein (human, biotin-labeled (site not stated)); experiment: capture ELISA, antibody captured on plate, biotin-labeled human PD-1 Fc in solution
T4 construct: also called PD-1-Fc-biotin
Method: (§2) Plates were washed 4 times with wash buffer (PBS+0.05% Tween-20, PBST) and then blocked with 200 μl/well blocking buffer (5% w/v non-fatty milk in PBST) for 2 hours at 37° C. […] After a final wash, plates were incubated with 100 μl/well ELISA substrate TMB (Innoreagents). The reaction was stopped in 15 minutes at 25° C. with 50 μl/well 1M H₂SO₄, and the absorbance was read at 450 nm. Data were analyzed using Graphpad Prism software and EC₅₀ values were reported.

[9] = biological target: T4, biotin-labeled human PD-1 Fc protein; experiment: as above; remark: listed apart in the source
Method: as §2

[10] = biological target: T4, biotin-labeled human PD-1 Fc protein; experiment: as above; remark: listed apart in the source
Method: as §2

[11] = biological target: T4, biotin-labeled human PD-1 Fc protein; experiment: as above; remark: listed apart in the source
Method: as §2

[12] = biological target: T4, biotin-labeled human PD-1 Fc protein; experiment: as above; remark: listed apart in the source
Method: as §2

[13] = biological target: T4, biotin-labeled human PD-1 Fc protein; experiment: as above; remark: listed apart in the source
Method: as §2

[14] = biological target: T4, biotin-labeled human PD-1 Fc protein; experiment: competition ELISA, antibody + biotin human PD-1 Fc on coated Nivolumab (competitor Nivolumab)
Method: (§3) The next day, plates were washed with wash buffer, and blocked with 5% non-fatty milk in PBST for 2 hours at 37° C. […] Plates were finally washed using wash buffer. TMB was added and the reaction was stopped using 1M H₂SO₄, and the absorbance was read at 450 nm. Data were analyzed using Graphpad Prism software and IC₅₀ values were reported.

[15] = biological target: T4, biotin-labeled human PD-1 Fc protein; experiment: as above; remark: listed apart in the source
Method: as §3

[16] = biological target: T4, biotin-labeled human PD-1 Fc protein; experiment: as above; remark: listed apart in the source
Method: as §3

[17] = biological target: T4, biotin-labeled human PD-1 Fc protein; experiment: competition ELISA, antibody + biotin human PD-1-Fc on coated human PD-L1-Fc (competitor PD-L1-Fc)
Method: (§4) The next day, plates were washed with wash buffer (PBS+0.05% Tween-20, PBST), and blocked with 5% non-fatty milk in PBST for 2 hours at 37° C. Plates were then washed again using wash buffer.
(§5) After incubation at 37° C. for 40 minutes, plates were washed for 4 times using wash buffer. […] Plates were washed again using wash buffer. Finally, TMB was added and the reaction was stopped using 1M H₂SO₄, and the absorbance was read at 450 nm. Data were analyzed using Graphpad Prism software and IC₅₀ values were reported.

[18] = biological target: T4, biotin-labeled human PD-1 Fc protein; experiment: as above; remark: listed apart in the source
Method: as §4, §5

[19] = biological target: T4, biotin-labeled human PD-1 Fc protein; experiment: as above; remark: listed apart in the source
Method: as §4, §5

[20] = biological target: T4, biotin-labeled human PD-1 Fc protein; experiment: capture ELISA, antibody captured on plate, biotin-labeled human PD-1 Fc in solution; remark: listed apart in the source
Method: as §2

[21] = biological target: T4, biotin-labeled human PD-1 Fc protein; experiment: as above; remark: listed apart in the source
Method: as §2

| Binder | Cell-based functional reporter assay (IC50, nM) [2] | Cell-based functional assay (EC50, nM) [3] | Kd [4] | Kd [5] | EC50 [8] | EC50 [9] | EC50 [10] | EC50 [11] | EC50 [12] | EC50 [13] | IC50 [14] | IC50 [15] | IC50 [16] | IC50 [18] | IC50 [19] | EC50 [20] | EC50 [21] | other results |
| --- | --- | --- | --- | --- | --- | --- | --- | --- | --- | --- | --- | --- | --- | --- | --- | --- | --- | --- |
| mouse anti-PD-1 monoclonal antibody D2H3 (antibody, V domains shown, Mouse antibody purified from a hybridoma; also called Mouse D2H3; mouse D2H3) VH: EVQLQQSGTVLARPGASVKMSCKSSGYTFTNYWMHWVKQRPGQGLEWIGAIFPRNSETNYNQKFKAKAKLTAVTSASTAYMEVSSLTSEDSAVYFCTRNRYGLDYWGQGTSVTVSS VL: DIVLTQSPGFLAVSLGQRATISCRASESVSLHGTRLMHWYHQKPGQPPKLLISLGSNLESGVPARFSGSGSETDFTLNIHPVEEEDAATYFCQQSIEDPWTFGGGTKLEIK | 8.48 nM | 8.48 nM | 0.373 nM | 1.46 nM | 0.15 nM | 0.17 nM | 0.18 ng/mL | 0.229 ng/mL | 0.388 ng/mL | 0.17 nM | 0.76 nM | 0.21 nM | 0.21 nM | 0.89 nM | 0.89 nM |  |  | Reporter Activation (EC50, nM), human PD-1 cell (NFAT-luc)/human PD-L1 cell [1]: 3.02 nM; Kd [6]: 0.373 nM; koff [6]: 0.000122 s⁻¹; kon [6]: 326000 M⁻¹ s⁻¹; Kd [7]: 1.46 nM; koff [7]: 0.000308 s⁻¹; kon [7]: 211000 M⁻¹ s⁻¹; IC50 [17]: 0.19 nM |
| mouse anti-PD-1 monoclonal antibody D2A4 (antibody, V domains shown, Mouse antibody purified from a hybridoma; also called Mouse D2A4; mouse D2A4) VH: EVKLVESGGGLVKPGGSLKLSCAASGFTFSSYTMSWVRQTPAKRLEWVATISGGGSNTYYPDSVKGRFTISRDNARNTLYLQMSSLRSEDTAMYYCARQAFYSNYWYFDVWGAGTTVTVSS VL: DIQMTQSPASQSASLGESVTITCLASQTIGTWLAWYQQTPGKSPQLLIYAATSLADGVPSRFSGSGSGTKFSFKISSLQAEDFASYYCQQVSSIPWTFGGGTKLEIR | 6.18 nM | 6.18 nM | 2.55 nM | 6.57 nM | 0.19 nM | 0.13 nM |  |  |  | 0.13 nM | 2.22 nM | 0.33 nM | 0.33 nM | 1.51 nM | 1.51 nM | 0.281 ng/mL |  | Reporter Activation (EC50, nM), human PD-1 cell (NFAT-luc)/human PD-L1 cell [1]: 8.1 nM; Kd [6]: 2.55 nM; koff [6]: 0.000401 s⁻¹; kon [6]: 157000 M⁻¹ s⁻¹; Kd [7]: 6.57 nM; koff [7]: 0.000793 s⁻¹; kon [7]: 121000 M⁻¹ s⁻¹; IC50 [17]: 0.17 nM |
| huD2H3-V14 (antibody, human IgG1, kappa, V domains shown, Humanized D2H3, human IgG1/kappa) VH: EVQLVQSGAEVKKPGSSVKVSCKASGYTFTNYWMHWVRQAPGQGLEWMGAIFPRNSETNYNQKFKARVTITADESTSTAYMELSSLRSEDTAVYYCTRNRYGLDYWGQGTLVTVSS VL: DIVMTQSPDSLAVSLGERATINCRASESVSLHGTRLMHWYQQKPGQPPKLLIYLGSNLESGVPDRFSGSGSGTDFTLTISSLQAEDVAVYYCQQSIEDPWTFGQGTKLEIKR |  | 7.11 nM | 0.308 nM | 1.5 nM |  |  |  |  | 0.531 ng/mL | 0.17 nM |  |  | 0.18 nM |  | 0.68 nM |  |  |  |
| chimeric D2H3 antibody (antibody, human IgG1, kappa, V domains shown, Mouse variable domains cloned in frame to human IgG1 and kappa constant regions; also called chD2H3) VH: EVQLQQSGTVLARPGASVKMSCKSSGYTFTNYWMHWVKQRPGQGLEWIGAIFPRNSETNYNQKFKAKAKLTAVTSASTAYMEVSSLTSEDSAVYFCTRNRYGLDYWGQGTSVTVSS VL: DIVLTQSPGFLAVSLGQRATISCRASESVSLHGTRLMHWYHQKPGQPPKLLISLGSNLESGVPARFSGSGSETDFTLNIHPVEEEDAATYFCQQSIEDPWTFGGGTKLEIKR | 5.36 nM | 5.36 nM | 0.441 nM | 1.78 nM |  | 0.17 nM | 1.04 ng/mL | 1.51 ng/mL | 0.31 ng/mL | 0.17 nM |  | 0.19 nM | 0.19 nM | 0.74 nM | 0.74 nM |  |  |  |
| chimeric D2A4 antibody (antibody, human IgG1, kappa, V domains shown, Mouse variable domains cloned in frame to human IgG1 and kappa constant regions; also called chD2A4; ChD2A4) VH: EVKLVESGGGLVKPGGSLKLSCAASGFTFSSYTMSWVRQTPAKRLEWVATISGGGSNTYYPDSVKGRFTISRDNARNTLYLQMSSLRSEDTAMYYCARQAFYSNYWYFDVWGAGTTVTVSS VL: DIQMTQSPASQSASLGESVTITCLASQTIGTWLAWYQQTPGKSPQLLIYAATSLADGVPSRFSGSGSGTKFSFKISSLQAEDFASYYCQQVSSIPWTFGGGTKLEIRR | 9.46 nM | 9.46 nM |  |  |  | 0.24 nM |  |  |  | 0.24 nM |  | 0.35 nM | 0.35 nM | 1.71 nM | 1.71 nM | 0.681 ng/mL | 0.773 ng/mL |  |
| huD2A4-V5 (antibody, human IgG1, kappa, Humanized D2A4, human IgG1/kappa) heavy: not shown light: DIQMTQSPSSVSASVGDRVTITCLASQTIGTWLAWYQQKPGKSPKLLIYAATSLADGVPSRFSGSGSGTDFTLTISSLQPEDFATYYCQQVSSIPWTFGGGTKVEIKRTVAAPSVFIFPPSDEQLKSGTASVVCLLNNFYPREAKVQWKVDNALQSGNSQESVTEQDSKDSTYSLSSTLTLSKADYEKHKVYACEVTHQGLSSPVTKSFNRGEC |  |  |  |  |  |  |  |  |  |  |  |  |  |  |  |  | 0.773 ng/mL |  |
| huD2A4-V6 (antibody, human IgG1, kappa, V domains shown, Humanized D2A4, human IgG1/kappa) VH: EVQLVESGGGLVQPGGSLRLSCAASGFTFSSYTMSWVRQAPGKGLEWVSTISGGGSNTYYPDSVKGRFTISRDNSKNTLYLQMNSLRAEDTAVYYCARQAFYSNYWYFDVWGKGTTVTVSS VL: DIQMTQSPSSVSASVGDRVTITCLASQTIGTWLAWYQQKPGKAPKLLIYAATSLADGVPSRFSGSGSGTDFTLTISSLQPEDFATYYCQQVSSIPWTFGGGTKVEIKR |  | 7.6 nM | 3.06 nM | 6.43 nM |  |  |  |  |  | 0.27 nM |  |  | 0.49 nM |  | 1.69 nM |  | 0.999 ng/mL |  |
| Nivolumab (OPDIVO®) (antibody, V domains shown) VH: QVQLVESGGGVVQPGRSLRLDCKASGITFSNSGMHWVRQAPGKGLEWVAVIWYDGSKRYYADSVKGRFTISRDNSKNTLFLQMNSLRAEDTAVYYCATNDDYWGQGTLVTVSS VL: EIVLTQSPATLSLSPGERATLSCRASQSVSSYLAWYQQKPGQAPRLLIYDASNRATGIPARFSGSGSGTDFTLTISSLEPEDFAVYYCQQSSNWPRTFGQGTKVEIK |  |  |  |  | 0.21 nM |  | 0.27 ng/mL | 0.365 ng/mL | 1.37 ng/mL | 0.45 nM | 3.79 nM |  |  |  | 0.42 nM | 0.351 ng/mL | 0.268 ng/mL |  |
